# Data as given in patent US20210198375A1 (NANJING UMAB BIOPHARMA, published 2021).
# Where two headings read alike, the source gives them in different places.
# T1: Interferon receptors on Daudi cells (UniProt P17181)
# T1 sequence (looked up) 1: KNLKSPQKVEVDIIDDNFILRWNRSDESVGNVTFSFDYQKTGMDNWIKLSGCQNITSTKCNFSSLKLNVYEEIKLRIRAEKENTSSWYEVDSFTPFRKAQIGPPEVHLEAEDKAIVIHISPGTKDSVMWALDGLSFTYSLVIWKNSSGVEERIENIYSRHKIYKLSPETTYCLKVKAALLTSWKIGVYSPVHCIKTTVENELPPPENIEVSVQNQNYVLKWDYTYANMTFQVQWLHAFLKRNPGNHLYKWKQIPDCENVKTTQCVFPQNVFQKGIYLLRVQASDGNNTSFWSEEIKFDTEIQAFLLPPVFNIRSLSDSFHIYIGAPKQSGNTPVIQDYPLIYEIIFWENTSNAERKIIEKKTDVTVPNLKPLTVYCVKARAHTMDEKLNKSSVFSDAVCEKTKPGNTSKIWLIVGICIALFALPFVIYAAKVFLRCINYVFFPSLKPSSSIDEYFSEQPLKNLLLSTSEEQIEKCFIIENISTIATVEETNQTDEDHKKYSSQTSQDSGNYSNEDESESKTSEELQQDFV
# T1 sequence (looked up) 2: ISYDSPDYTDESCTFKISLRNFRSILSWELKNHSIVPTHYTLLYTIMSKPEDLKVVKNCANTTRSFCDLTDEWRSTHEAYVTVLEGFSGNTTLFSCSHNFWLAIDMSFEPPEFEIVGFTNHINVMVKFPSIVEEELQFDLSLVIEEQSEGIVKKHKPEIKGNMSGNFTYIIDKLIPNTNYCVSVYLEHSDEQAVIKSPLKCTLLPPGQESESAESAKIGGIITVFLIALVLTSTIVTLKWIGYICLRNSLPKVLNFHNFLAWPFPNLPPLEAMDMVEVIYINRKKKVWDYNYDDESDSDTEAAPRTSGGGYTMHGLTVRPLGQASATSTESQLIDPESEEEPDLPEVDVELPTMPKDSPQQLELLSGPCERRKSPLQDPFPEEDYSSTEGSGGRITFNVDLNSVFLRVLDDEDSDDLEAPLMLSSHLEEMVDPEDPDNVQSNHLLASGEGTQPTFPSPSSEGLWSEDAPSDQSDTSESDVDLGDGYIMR
# T2: OX40 on reporter cells (Jurkat-OX40-NFκB-luciferase; HEK293-OX40-NFκB-Luc) (UniProt P43489 29-277)
# T2 sequence (looked up): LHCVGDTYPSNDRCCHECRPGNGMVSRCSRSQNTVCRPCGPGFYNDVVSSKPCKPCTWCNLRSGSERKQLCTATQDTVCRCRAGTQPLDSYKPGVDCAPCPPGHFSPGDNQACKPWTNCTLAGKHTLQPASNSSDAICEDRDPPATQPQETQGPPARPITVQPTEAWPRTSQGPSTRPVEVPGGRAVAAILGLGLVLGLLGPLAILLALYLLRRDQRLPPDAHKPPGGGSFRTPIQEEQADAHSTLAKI
# T3: human OX40 protein (human, UniProt P43489 29-216, limits assumed)
# T3 construct: also called TNFRSF4; CD134
# T3 sequence (looked up): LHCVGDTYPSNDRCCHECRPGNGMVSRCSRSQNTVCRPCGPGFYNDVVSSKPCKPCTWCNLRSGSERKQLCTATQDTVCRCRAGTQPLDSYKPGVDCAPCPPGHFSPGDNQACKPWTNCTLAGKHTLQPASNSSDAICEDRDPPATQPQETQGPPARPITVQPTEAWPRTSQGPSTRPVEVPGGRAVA
# T4: human OX40 expressed on CHO cells (human, UniProt P43489 29-277)
# T4 construct: whole, on cells; also called hsOX40; CHO-hOX40
# T4 sequence (looked up): T2 sequence (looked up)
# B1: MT01-C1 (antibody, human IgG1, V domains shown)
# VH: EVQLVQSGAEVKKPGESLKISCKASGYTFTSYVMHWLRQMPGKGLEWMGYINPYNDGTKYNEKFKGQVTISSDKSISTAYLQWSSLKASDTAMYYCANYYGSKFAMDYWGQGTMVTVSS
# VL: DIQMTQSPSSVSASVGDRVTITCRASQDISNYLSWYQQKPGGAVKLLIYYTSRLHSGVPSRFSGSGSGTDYTLTISSLQPEDFATYFCQQGITLPWTFGQGTKVEIK
# notes: also called OX40 antibody MT01-C1; OX40 mAb MT01-C1
# B2: MT01-C1 as described in Example 11 (human IgG4 (S228P), κ) (antibody, V domains shown)
# VH: B1 VH
# VL: B1 VL
# notes: also called OX40 antibody MT01-C1; MT01-C1 mAb
# B3: MT01-L1 (antibody, V domains shown)
# VH: EVQLQQSGPELVKPGASVKMSCKASGYTFTSYVMHWLKQKPGQGLEWIGYINPYNDGTKYNEKFKGKAKLTSDKSSSTAYMELSSLTSEDSAVYYCANYYGSKFAMDYWGQGTSVTVSS
# VL: DIQMTQTTSSLSASLGDRVTISCRASQDISNYLSWYQRKPDGAVKLLIYYTSRLHSGVPSRFSGSGSGADYSLTISNLEQEDIATYFCQQGITLPWTFGGGTKLEIKR
# Experiments:
# [1] = target: T1, Interferon receptors on Daudi cells; assay: cell-based or functional assay
# [2] = target: T2, OX40 on reporter cells …; assay: cell-based or functional assay
# [3] = target: T2, OX40 on reporter cells …; assay: cell-based or functional assay; remark: listed apart in the source
# [4] = target: T2, OX40 on reporter cells …; assay: cell-based or functional assay; remark: listed apart in the source
# [5] = target: T3, human OX40 protein; assay: ELISA, plate coated with human OX40 protein, goat-anti-human IgG HRP
# Description: The next day, the plate was first washed 3 times with 300 μL PBST (Tween 20: 0.5‰), then blocked with 5% BSA/PBS at 100 μL/well for 2 h, and shaken at room temperature, followed by washing 3 times with 300 μL PBST. Gradient dilutions of the fusion protein samples were prepared in PBS, and then added to the 96-well plate at 100 μL/well; the plate was shaken for 1 h at room temperature, followed by washing 3 times with 300 μL PBST. A secondary antibody goat-anti-human IgG HRP solution was prepared and added to the 96-well plate at 100 μL/well, and the plate was shaken for 1 h at room temperature, followed by washing 4 times with 300 μL PBST. TMB was added at 100 μL/well to develop color for 20 min. 0.6N H₂SO₄ was added at 100 μL/well to stop the color development, and the OD values were determined at 450 nm.
# [6] = target: T3, human OX40 protein; assay: ELISA, plate coated with human OX40 protein, mouse-anti-human IgG HRP
# Description: The next day, the plate was first washed 3 times with 300 μL PBST (Tween 20: 0.5‰), then blocked with 5% BSA/PBS at 100 μL/well for 2 h, and shaken at room temperature, followed by washing 3 times with 300 μL PB ST. Gradient dilutions of the fusion protein samples were prepared in PBS, and then added to the 96-well plate at 100 μL/well; the plate was shaken for 1 h at room temperature, followed by washing 3 times with 300 μL PBST. A mouse-anti-human IgG HRP (GenScript Biotech Corp., Art. No. A01854) solution was prepared and added into the 96-well plate at 100 μL/well, and the plate was shaken for 1 h at room temperature, followed by washing 4 times with 300 μL PBST. TMB was added at 100 μL/well to develop color for 20 min. 0.6N H₂SO₄ was added at 100 μL/well to stop the color development, and the OD (optical density) values were determined at 450 nm.
# [7] = target: T4, human OX40 expressed on CHO cells; assay: FACS on CHO cells transfected with human OX40
molecule,measurement,setting,value
"pegylated interferon α2 (Pegberon, Xiamen Amoytop Biotech, Batch No. 201811JS19) (ligand)","proliferation inhibitory activity on Daudi cells, IC50",[1],10600 nM
B1,"activate NFκB-luciferase reporter, EC50",[2],0.0452 ng/mL
same,Activation activity of OX40 signaling pathway EC50,[3],0.178 nM
same,Activation activity of OX40 signaling pathway EC50,[4],0.325 nM
same,EC50,[5],298 ng/mL
B2,EC50,[6],1.21 nM
B3,EC50,[7],660 ng/mL
